Source: US20220048948A1 (REGENTS OF THE UNIVERSITY OF MINNESOTA, published 2022)
No end group written: not given here.

B1: Peptide 1 (control CD40-binding peptide) (peptide)
peptide: VLQWAEKGYYTMSNN
modifications: also: also used fluorescently labelled (dye and position not given here), called cyclic, no cyclisation chemistry given
notes: also called control Peptide 1

target: CD40 on Rhesus macaque peripheral blood mononuclear cells / B cells (Rhesus macaque, UniProt F6SNI1 21-278); assay: cell-based or functional assay

Row | MHC class II expression on B cells after activation with recombinant hCD40L, peptide at 30 µM | Binder
1 | 50 % reduction | VLQWAERGFYTTSNN (also: also made with a fluorescent label, dye and site not given here) [Peptide 2]
2 | 50 % reduction | VVQWAEKGFFTMSNN (also: also made with a fluorescent label, dye and site not given here) [Peptide 3]
3 | 50 % reduction | LLQWAERGYFMTSNN (also: also made with a fluorescent label, dye and site not given here) [Peptide 6]
4 | 50 % reduction | B1
5 | 50 % reduction | VVQWAEKGYYTMSQN (also: also made with a fluorescent label, dye and site not given here) [Peptide 7]
6 | 50 % reduction | LVNWADKAFYTTSNN (also: also made with a fluorescent label, dye and site not given here) [Peptide 5]
7 | 50 % reduction | VLNWADKAYFTMSQN (also: also made with a fluorescent label, dye and site not given here) [Peptide 4]

target: T1, FLAG-tagged rhsCD40 (Alexis) (human, UniProt P25942 21-193, limits assumed); assay: ELISA, peptide and FLAG-tagged rhsCD40 (1 ug/ml), detected with HRP anti-FLAG antibody, TMB, OD 450 nm
T1 construct: Bought reagent (Alexis); also called recombinant human CD40; human CD40; not shown: FLAG tag
T1 sequence (P25942 21-193 limits assumed): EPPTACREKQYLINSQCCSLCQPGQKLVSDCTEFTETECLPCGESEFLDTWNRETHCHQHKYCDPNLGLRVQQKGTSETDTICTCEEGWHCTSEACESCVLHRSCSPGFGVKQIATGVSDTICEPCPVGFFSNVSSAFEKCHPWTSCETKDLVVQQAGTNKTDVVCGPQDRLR
Protocol: Binding of the identified peptides to CD40 was analyzed by ELISA. Briefly, plates were coated with […] and then incubated with identified peptides and detected using Flag-tagged rhsCD40.
In order to confirm the specificity of the peptides to interfere with CD40:CD154 interaction, the specificity of peptides 1-7 as listed in table 1 to bind to human […] by ELISA was tested. Briefly, 96 well ELISA (Nunc Immunolon) plates were coated with the peptides in carbonate buffer. The wells are washed and probed with FLAG-tagged rhsCD40 (1 μg/ml; Alexis) and developed with HRP conjugated rabbit anti-FLAG antibody. The plates were washed and the enzymatic activity was determined using 3,3′,5,5′-tetramethyl-benzidine substrate for 15 minutes and the reaction was stopped by the addition of 2 M H2SO4, and optical density was measured at 450 nm, with the correction wavelength set at 620 nm.

Row | binding result | Binder
8 | binds | VLQWAERGFYTTSNN (also: also made with a fluorescent label, dye and site not given here) [Peptide 2]
9 | binds | VVQWAEKGFFTMSNN (also: also made with a fluorescent label, dye and site not given here) [Peptide 3]
10 | binds | LLQWAERGYFMTSNN (also: also made with a fluorescent label, dye and site not given here) [Peptide 6]
11 | binds | B1
12 | binds | VVQWAEKGYYTMSQN (also: also made with a fluorescent label, dye and site not given here) [Peptide 7]
13 | binds | LVNWADKAFYTTSNN (also: also made with a fluorescent label, dye and site not given here) [Peptide 5]
14 | binds | VLNWADKAYFTMSQN (also: also made with a fluorescent label, dye and site not given here) [Peptide 4]
